Assay [1] addresses mouse TIM-3, membrane bound (mouse) (UniProt Q8VIM0). In words: binding to activated mouse T cells; method not described.
Assay [2] has the same target. In words: binding to activated mouse T cells, compared with TIM3.18 binding to human TIM-3; method not described.

Sequence of mouse TIM-3, membrane bound (mouse) (Q8VIM0 20-281): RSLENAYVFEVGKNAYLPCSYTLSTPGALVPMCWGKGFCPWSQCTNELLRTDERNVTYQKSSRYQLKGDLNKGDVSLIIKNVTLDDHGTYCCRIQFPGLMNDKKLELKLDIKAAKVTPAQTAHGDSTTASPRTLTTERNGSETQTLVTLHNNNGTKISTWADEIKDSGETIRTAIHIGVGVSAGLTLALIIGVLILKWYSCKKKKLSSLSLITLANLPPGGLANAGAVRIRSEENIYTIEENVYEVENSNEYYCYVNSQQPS

In assay [1], “RMT3-23, rat anti-mouse TIM-3 antibody (Bio-X-Cell)” registered a concentration giving a half-maximal response (EC50) of 1.7 nM. Besides, the fold weaker EC50 than TIM3.18 on human TIM-3 in assay [2] amounted to 17 fold.

The term EC50 denotes the concentration that produces a half-maximal response. Read a low EC50 as higher potency in that assay.

These data come from patent US20250326841A1.
